Results reported in PMC6555819, “Comprehensive study of nuclear receptor DNA binding provides a revised framework for understanding receptor specificity”.

What was measured:
[1] = target: THRa:RXRa (Homo sapiens, UniProt P10827;P19793 full;full); assay: no ligand; PBM; 90 nM : 90 nM RXRa; PBS pH 7.4, 2% milk, 0.02% Triton X-100, 1 mM DTT, BSA, 0.4 mg/ml salmon testes DNA; conditions: tags: His kept;His cleaved; copies: 1;1; label: surface-attached array probe
[2] = target: RARg:RXRa (Homo sapiens, UniProt P13631;P19793 full;full); assay: no ligand; PBM; 270 nM : 90 nM RXRa; PBS pH 7.4, 2% milk, 0.02% Triton X-100, 1 mM DTT, BSA, 0.4 mg/ml salmon testes DNA; conditions: tags: His kept;His cleaved; copies: 1;1; label: surface-attached array probe
How it was run: (§1)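 Probes were double-stranded and carried 34-nt variable regions with direct-repeat seeds, single-nucleotide variants, half-site ablations and random human genomic background sequences, printed on custom Agilent 4×180K protein-binding microarrays. Arrays were incubated 1 h with ligand-free nuclear receptor dimers in PBS pH 7.4, 2% milk, 0.02% Triton X-100, 1 mM DTT, 0.2 mg/mL BSA and 0.4 mg/ml salmon testes DNA. Antibodies against each partner (one per run) detected binding, and scanned fluorescence was regression-normalized. Binding z-scores use the random background probes as reference.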

[3] = target: LXRb:RXRa (Homo sapiens, UniProt P55055;P19793 full;full); assay: as above; conditions: tags: His kept;His cleaved; copies: 1;1; label: surface-attached array probe
How it was run: as §1

[4] = target: FXR:RXRa (Homo sapiens, UniProt Q96RI1;P19793 full;full); assay: as above; conditions: tags: His kept;His cleaved; copies: 1;1; label: surface-attached array probe
How it was run: as §1

[5] = target: RARa:RXRa (Homo sapiens, UniProt P10276;P19793 full;full); assay: as above; conditions: tags: His kept;His cleaved; copies: 1;1; label: surface-attached array probe
How it was run: as §1

[6] = target: VDR:RXRa (Homo sapiens, UniProt P11473;P19793 full;full); assay: as above; conditions: tags: His kept;His cleaved; copies: 1;1; label: surface-attached array probe
How it was run: as §1

[7] = target: PXR:RXRa (Homo sapiens, UniProt O75469;P19793 full;full); assay: as above; conditions: tags: His kept;His cleaved; copies: 1;1; label: surface-attached array probe
How it was run: as §1

[8] = target: LXRa:RXRa (Homo sapiens, UniProt Q13133;P19793 full;full); assay: as above; conditions: tags: His kept;His cleaved; copies: 1;1; label: surface-attached array probe
How it was run: as §1

[9] = target: PPARa:RXRa (Homo sapiens, UniProt Q07869;P19793 full;full); assay: as above; conditions: tags: GST kept;His cleaved; copies: 1;1; label: surface-attached array probe
How it was run: as §1

[10] = target: RXRa (Homo sapiens, UniProt P19793); assay: no ligand; PBM; 180 nM; PBS pH 7.4, 2% milk, 0.02% Triton X-100, 1 mM DTT, BSA, 0.4 mg/ml salmon testes DNA; conditions: tags: His cleaved; chain copies: 2; label: surface-attached array probe
[11] = target: RARb:RXRa (Homo sapiens, UniProt P10826;P19793 full;full); assay: no ligand; PBM; 270 nM : 90 nM RXRa; PBS pH 7.4, 2% milk, 0.02% Triton X-100, 1 mM DTT, BSA, 0.4 mg/ml salmon testes DNA; conditions: tags: His kept;His cleaved; copies: 1;1; label: surface-attached array probe
How it was run: as §1

THRa:RXRa, sequence (P10827 other isoform, or with tags, fused parts or gaps, chain 1 of 2): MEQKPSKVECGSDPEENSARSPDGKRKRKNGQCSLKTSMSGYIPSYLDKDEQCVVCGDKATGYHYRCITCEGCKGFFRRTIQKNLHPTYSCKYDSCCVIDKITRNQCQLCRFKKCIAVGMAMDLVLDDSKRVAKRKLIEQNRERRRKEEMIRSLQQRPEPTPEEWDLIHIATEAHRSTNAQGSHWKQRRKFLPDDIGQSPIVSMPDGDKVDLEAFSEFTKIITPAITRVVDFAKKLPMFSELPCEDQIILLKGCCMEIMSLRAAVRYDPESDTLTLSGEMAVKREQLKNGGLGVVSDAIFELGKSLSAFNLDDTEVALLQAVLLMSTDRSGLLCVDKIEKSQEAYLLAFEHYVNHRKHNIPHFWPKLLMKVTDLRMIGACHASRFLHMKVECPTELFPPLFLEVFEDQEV
THRa:RXRa, sequence (P19793 whole entry, chain 2 of 2): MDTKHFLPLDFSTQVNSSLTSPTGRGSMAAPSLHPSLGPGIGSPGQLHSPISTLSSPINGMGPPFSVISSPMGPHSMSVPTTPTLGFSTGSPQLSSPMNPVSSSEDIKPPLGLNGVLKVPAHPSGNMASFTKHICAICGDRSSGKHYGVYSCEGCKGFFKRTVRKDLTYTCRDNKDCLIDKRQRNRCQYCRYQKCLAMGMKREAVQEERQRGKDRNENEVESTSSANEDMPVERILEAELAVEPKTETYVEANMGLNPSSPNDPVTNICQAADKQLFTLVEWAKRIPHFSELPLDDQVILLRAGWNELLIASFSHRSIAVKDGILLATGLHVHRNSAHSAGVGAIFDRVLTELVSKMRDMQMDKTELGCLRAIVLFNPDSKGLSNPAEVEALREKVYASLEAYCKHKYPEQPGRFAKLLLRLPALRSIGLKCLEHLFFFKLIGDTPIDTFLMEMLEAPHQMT
LXRb:RXRa, sequence (P55055 whole entry, chain 1 of 2): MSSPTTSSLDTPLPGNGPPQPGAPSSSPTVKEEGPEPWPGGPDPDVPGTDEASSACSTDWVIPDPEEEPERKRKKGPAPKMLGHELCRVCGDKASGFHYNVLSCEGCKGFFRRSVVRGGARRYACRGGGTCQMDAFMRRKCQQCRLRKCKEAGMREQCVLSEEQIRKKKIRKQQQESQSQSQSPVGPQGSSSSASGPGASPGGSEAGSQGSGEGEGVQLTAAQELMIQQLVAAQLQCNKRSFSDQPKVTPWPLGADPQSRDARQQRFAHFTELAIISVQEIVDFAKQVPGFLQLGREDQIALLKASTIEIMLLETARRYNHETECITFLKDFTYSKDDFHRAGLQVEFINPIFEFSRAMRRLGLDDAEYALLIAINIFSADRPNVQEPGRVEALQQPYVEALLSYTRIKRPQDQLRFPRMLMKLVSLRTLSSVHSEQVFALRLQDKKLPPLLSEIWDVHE
LXRb:RXRa, sequence (P19793 whole entry, chain 2 of 2): as the sequence (P19793 whole entry, chain 2 of 2) above
PXR:RXRa, sequence (O75469 whole entry, chain 1 of 2): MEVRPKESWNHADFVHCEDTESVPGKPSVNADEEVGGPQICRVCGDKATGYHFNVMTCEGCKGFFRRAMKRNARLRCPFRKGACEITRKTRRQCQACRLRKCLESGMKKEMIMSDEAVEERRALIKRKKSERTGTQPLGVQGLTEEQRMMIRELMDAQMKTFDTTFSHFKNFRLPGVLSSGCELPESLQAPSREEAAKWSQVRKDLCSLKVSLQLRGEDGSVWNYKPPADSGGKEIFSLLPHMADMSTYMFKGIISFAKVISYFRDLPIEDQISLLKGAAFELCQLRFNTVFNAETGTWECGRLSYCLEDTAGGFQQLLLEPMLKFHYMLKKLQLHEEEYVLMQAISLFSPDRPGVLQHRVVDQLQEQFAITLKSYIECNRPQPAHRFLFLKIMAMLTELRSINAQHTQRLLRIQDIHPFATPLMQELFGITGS
PXR:RXRa, sequence (P19793 whole entry, chain 2 of 2): as the sequence (P19793 whole entry, chain 2 of 2) above
RARg:RXRa, sequence (P13631 whole entry, chain 1 of 2): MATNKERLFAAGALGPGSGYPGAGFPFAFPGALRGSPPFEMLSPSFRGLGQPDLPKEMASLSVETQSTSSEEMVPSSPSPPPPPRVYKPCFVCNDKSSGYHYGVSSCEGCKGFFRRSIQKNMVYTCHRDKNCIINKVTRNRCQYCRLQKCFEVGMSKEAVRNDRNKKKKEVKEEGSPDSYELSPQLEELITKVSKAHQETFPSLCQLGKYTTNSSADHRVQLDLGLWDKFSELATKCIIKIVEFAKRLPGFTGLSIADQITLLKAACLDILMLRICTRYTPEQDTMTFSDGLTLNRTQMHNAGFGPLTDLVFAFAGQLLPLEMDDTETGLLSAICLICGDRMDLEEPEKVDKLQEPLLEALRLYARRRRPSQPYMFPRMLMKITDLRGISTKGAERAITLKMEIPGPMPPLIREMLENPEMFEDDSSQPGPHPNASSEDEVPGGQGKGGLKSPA
RARg:RXRa, sequence (P19793 whole entry, chain 2 of 2): as the sequence (P19793 whole entry, chain 2 of 2) above
RARa:RXRa, sequence (P10276 whole entry, chain 1 of 2): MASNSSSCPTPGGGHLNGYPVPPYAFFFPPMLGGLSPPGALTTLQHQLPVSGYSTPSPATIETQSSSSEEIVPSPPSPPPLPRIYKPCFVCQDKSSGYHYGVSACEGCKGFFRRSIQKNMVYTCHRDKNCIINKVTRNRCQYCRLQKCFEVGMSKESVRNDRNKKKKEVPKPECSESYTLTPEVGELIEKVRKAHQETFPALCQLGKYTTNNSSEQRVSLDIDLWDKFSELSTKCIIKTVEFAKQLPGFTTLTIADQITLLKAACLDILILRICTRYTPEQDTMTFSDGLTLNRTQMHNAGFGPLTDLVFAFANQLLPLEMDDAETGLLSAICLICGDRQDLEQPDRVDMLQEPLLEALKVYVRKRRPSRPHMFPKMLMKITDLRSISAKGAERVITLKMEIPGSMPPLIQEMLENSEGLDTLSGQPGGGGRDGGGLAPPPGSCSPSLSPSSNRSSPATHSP
RARa:RXRa, sequence (P19793 whole entry, chain 2 of 2): as the sequence (P19793 whole entry, chain 2 of 2) above

| Binder | binding signal [1] | binding signal [2] | binding signal [3] | binding signal [4] | binding signal [5] | binding signal [6] | binding signal [7] | binding signal [8] | binding signal [9] | binding signal [10] | binding signal [11] |
| --- | --- | --- | --- | --- | --- | --- | --- | --- | --- | --- | --- |
| NRC3_wobSeed101_DR4_C8G_o1 (dsDNA) DNA 1: GCCCTTAGGGGTCACTCCAGGTTATAGCATCGGAGTGCGATTGACAGCGTAGAATGAAGG DNA 2: CCTTCATTCTACGCTGTCAATCGCACTCCGATGCTATAACCTGGAGTGACCCCTAAGGGC | 5.63 PBM z-score against 500 random probes | 7.43 PBM z-score against 500 random probes | 7.21 PBM z-score against 500 random probes | 8.32 PBM z-score against 500 random probes | 7.45 PBM z-score against 500 random probes | 6.64 PBM z-score against 500 random probes | 7.15 PBM z-score against 500 random probes | 8.6 PBM z-score against 500 random probes | 6.76 PBM z-score against 500 random probes | 8.62 PBM z-score against 500 random probes |  |
| NRC3_random_hg19_156_o1 (dsDNA) DNA 1: GCGCCACCAGGCCTGCCTTACAAGAGCTCCTGAAGAGCGATTGACAGCGTAGAATGAAGG DNA 2: CCTTCATTCTACGCTGTCAATCGCTCTTCAGGAGCTCTTGTAAGGCAGGCCTGGTGGCGC | -0.26 PBM z-score against 500 random probes |  |  |  | -0.57 PBM z-score against 500 random probes |  |  |  |  |  |  |
| NRC3_wobSeed141_DR5_A24C_o1 (dsDNA) DNA 1: GCAGTCAAAGTTCAGGACGAGGTCACGTAAAGCACGGCGATTGACAGCGTAGAATGAAGG DNA 2: CCTTCATTCTACGCTGTCAATCGCCGTGCTTTACGTGACCTCGTCCTGAACTTTGACTGC | 5.13 PBM z-score against 500 random probes | 8.19 PBM z-score against 500 random probes |  |  | 7.52 PBM z-score against 500 random probes | 6.63 PBM z-score against 500 random probes | 6.95 PBM z-score against 500 random probes |  |  |  | 5.48 PBM z-score against 500 random probes |
| NRC3_random_hg19_138_o1 (dsDNA) DNA 1: GCTAGGTTCTCAGAGTAAGAAGTCCATGTTGGTTAGGCGATTGACAGCGTAGAATGAAGG DNA 2: CCTTCATTCTACGCTGTCAATCGCCTAACCAACATGGACTTCTTACTCTGAGAACCTAGC | 0.16 PBM z-score against 500 random probes |  | 0.28 PBM z-score against 500 random probes | 0.34 PBM z-score against 500 random probes | -0.25 PBM z-score against 500 random probes |  |  |  |  |  |  |
| NRC3_random_hg19_91_o1 (dsDNA) DNA 1: GCGACTCAGACACTGCTGGCACCCGACACTGCTCTCGCGATTGACAGCGTAGAATGAAGG DNA 2: CCTTCATTCTACGCTGTCAATCGCGAGAGCAGTGTCGGGTGCCAGCAGTGTCTGAGTCGC | -0.34 PBM z-score against 500 random probes |  |  |  | -0.13 PBM z-score against 500 random probes |  |  |  |  |  |  |
| NRC3_random_hg19_360_o1 (dsDNA) DNA 1: GCGCCTGCATAGCCATTCACAGACACTGCCAATACCGCGATTGACAGCGTAGAATGAAGG DNA 2: CCTTCATTCTACGCTGTCAATCGCGGTATTGGCAGTGTCTGTGAATGGCTATGCAGGCGC | -0.43 PBM z-score against 500 random probes |  | -0.18 PBM z-score against 500 random probes |  | -0.36 PBM z-score against 500 random probes |  |  |  | -0.57 PBM z-score against 500 random probes | -0.49 PBM z-score against 500 random probes |  |
| NRC3_wobSeed72_DR2_G20T_o1 (dsDNA) DNA 1: GCTCGAGTAGGTTACGGGGTCATTCAGGGATGAAGAGCGATTGACAGCGTAGAATGAAGG DNA 2: CCTTCATTCTACGCTGTCAATCGCTCTTCATCCCTGAATGACCCCGTAACCTACTCGAGC | 4.85 PBM z-score against 500 random probes |  |  |  | 7.48 PBM z-score against 500 random probes |  | 6.49 PBM z-score against 500 random probes |  |  |  |  |
| NRC3_wobSeed133_DR5_T19G_o1 (dsDNA) DNA 1: GCCGTCCAAGGTCAATGCGAGGTCAGTGAAAGCATTGCGATTGACAGCGTAGAATGAAGG DNA 2: CCTTCATTCTACGCTGTCAATCGCAATGCTTTCACTGACCTCGCATTGACCTTGGACGGC | 5.07 PBM z-score against 500 random probes | 8.33 PBM z-score against 500 random probes |  |  | 7.03 PBM z-score against 500 random probes |  | 6.42 PBM z-score against 500 random probes |  |  |  |  |
| NRC3_wobSeed100_DR4_C12T_o1 (dsDNA) DNA 1: GCCCTACTGGGTCACGAAAGGTCATTGATTCAGTGAGCGATTGACAGCGTAGAATGAAGG DNA 2: CCTTCATTCTACGCTGTCAATCGCTCACTGAATCAATGACCTTTCGTGACCCAGTAGGGC | 5.47 PBM z-score against 500 random probes |  | 6.66 PBM z-score against 500 random probes |  | 7.1 PBM z-score against 500 random probes |  | 7.22 PBM z-score against 500 random probes | 8.11 PBM z-score against 500 random probes |  |  | 5.53 PBM z-score against 500 random probes |
